Experimental data: patent US20240108746A1 (Molecular Partners, published 2024)
Values joined by “and” are separate entries in the source; they are usually repeats but may differ in a detail not shown here. Equal entries are not always repeated.

T1: TCE #1
T1 chain: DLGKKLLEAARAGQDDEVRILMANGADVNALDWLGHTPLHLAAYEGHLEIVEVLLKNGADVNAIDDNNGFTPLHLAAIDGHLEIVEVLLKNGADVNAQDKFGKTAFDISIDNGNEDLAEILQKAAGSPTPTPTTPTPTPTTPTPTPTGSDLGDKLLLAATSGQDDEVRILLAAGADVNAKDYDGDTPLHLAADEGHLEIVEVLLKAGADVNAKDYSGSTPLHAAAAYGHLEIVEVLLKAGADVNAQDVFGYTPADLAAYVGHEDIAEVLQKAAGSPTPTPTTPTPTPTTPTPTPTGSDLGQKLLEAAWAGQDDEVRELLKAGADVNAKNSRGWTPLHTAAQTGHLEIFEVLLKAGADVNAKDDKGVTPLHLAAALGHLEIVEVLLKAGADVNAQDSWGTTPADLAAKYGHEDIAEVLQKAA

T2: CD3-specific binding domain (SEQ ID NO:11)
T2 construct: Immobilized on beads in the sink chamber of the 'complex' Incucyte assay; also the first selection target; also called immobilized scavenger protein; bead-immobilized target protein
T2 chain: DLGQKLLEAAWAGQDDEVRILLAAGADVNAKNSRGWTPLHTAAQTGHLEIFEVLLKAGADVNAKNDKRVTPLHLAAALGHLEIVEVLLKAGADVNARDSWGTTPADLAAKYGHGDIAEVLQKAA

T3: Biotinylated CD3-specific binding domain SEQ ID NO: 14 (biotinylated (site not stated))
T3 construct: Ligand on the neutravidin (NLC) SPR chip
T3 chain: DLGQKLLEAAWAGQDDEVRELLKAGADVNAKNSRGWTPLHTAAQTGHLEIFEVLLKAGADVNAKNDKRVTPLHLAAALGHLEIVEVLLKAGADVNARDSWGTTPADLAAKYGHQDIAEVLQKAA

T4: Biotinylated CD3-specific binding domain SEQ ID NO: 13 (biotinylated (site not stated))
T4 construct: Ligand on the neutravidin (NLC) SPR chip; The same domain is the CD3-specific domain of TCE #1
T4 chain: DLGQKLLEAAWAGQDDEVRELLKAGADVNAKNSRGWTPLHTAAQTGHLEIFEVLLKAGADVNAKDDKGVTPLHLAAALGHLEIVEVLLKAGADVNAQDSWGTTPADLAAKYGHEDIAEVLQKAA

T5: TCE #2
T5 construct: also called α-HSA×α-CD123×α-CD33×α-CD3 T-cell engager; TCE (with a half-life extending moiety)
T5 chain: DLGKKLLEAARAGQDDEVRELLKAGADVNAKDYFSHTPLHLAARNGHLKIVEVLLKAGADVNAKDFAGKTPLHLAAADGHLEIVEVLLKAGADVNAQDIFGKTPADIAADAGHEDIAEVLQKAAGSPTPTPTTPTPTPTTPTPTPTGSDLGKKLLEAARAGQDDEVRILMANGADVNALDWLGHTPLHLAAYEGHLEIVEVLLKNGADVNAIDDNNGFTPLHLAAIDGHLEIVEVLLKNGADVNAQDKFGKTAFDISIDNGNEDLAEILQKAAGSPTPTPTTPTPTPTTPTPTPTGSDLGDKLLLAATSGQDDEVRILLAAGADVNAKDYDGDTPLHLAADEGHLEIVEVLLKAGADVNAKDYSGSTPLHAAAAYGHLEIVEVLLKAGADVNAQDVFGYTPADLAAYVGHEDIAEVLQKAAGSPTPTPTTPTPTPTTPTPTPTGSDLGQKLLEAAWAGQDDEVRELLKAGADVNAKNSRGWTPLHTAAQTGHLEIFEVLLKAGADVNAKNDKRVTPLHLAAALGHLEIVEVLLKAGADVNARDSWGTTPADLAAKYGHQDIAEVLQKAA


What was measured:
TCE #1 [1] = target: T1, TCE #1; assay: cell-based or functional assay
[2] = target: T2, CD3-specific binding domain (SEQ ID …); assay: bead-immobilized scavenger protein in the sink chamber of the complex Incucyte assay
Experimental: In the experiment described here, a TCE (TCE #1) was used as drug molecule.
As in Example 4, a tumor cell line expressing the TAA was used as target cell line which has been transduced with Incucyte Nuclight Red Lentivirus for detection by the Incucyte® camera. PanT-cells were added, together with different prodrug complexes. […] Additionally, unbound TCE #1 (10 pM) as well as background (i.e. no prodrug complex or TCE, but with beads) served as controls. Tumor cell growth was measured for a period of 5 days by determining the area of red objects detected by the Incucyte® camera.

[3] = target: T3, Biotinylated CD3-specific binding …; assay: SPR (ProteOn XPR36), 33 C, multi-trace; biotinylated ligand on chip, binder as analyte
Experimental: (§1) Further SPR data were generated for Binders #1 to #9 (as listed in Example 1 above), binding to biotinylated CD3-specific binding domains having SEQ ID NOs: 13 and 14, respectively, on the chip. […] The blocking half-life (T_{1/2}) was then calculated.

[4] = target: T4, Biotinylated CD3-specific binding …; assay: as above
Experimental: as §1

[5] = target: T3, Biotinylated CD3-specific binding …; assay: calculated from SPR koff (ln2/koff)
Experimental: as §1

[6] = target: T4, Biotinylated CD3-specific binding …; assay: calculated from SPR koff (ln2/koff)
Experimental: as §1

TCE #1 [7] = target: T1, TCE #1; assay: cell-based or functional assay
TCE #1 [8] = target: T1, TCE #1; assay: cell-based or functional assay
[9] = target: T3, Biotinylated CD3-specific binding …; assay: SPR (comparable assays)
[10] = target: T4, Biotinylated CD3-specific binding …; assay: SPR (comparable assays)
TCE #2 [11] = target: T5, TCE #2; assay: not stated (affinity to the CD3 binding domain of TCE #2); Binder #10, 1 pM or lower
TCE #1 [12] = target: T1, TCE #1; assay: not stated in the sentence (affinity quoted for the Incucyte experiment with TCE #1)
TCE #2 [13] = target: T5, TCE #2; assay: not stated (affinity to the CD3 effector moiety of TCE #2); Binder #4, double-digit pM
TCE #2 [14] = target: T5, TCE #2; assay: not stated (affinity to the CD3 effector moiety of TCE #2)

| Kd [3] | koff [3] | Kd [4] | koff [4] | Blocking T1/2 [5] | Blocking T1/2 [6] | IC50, inhibition of TCE #1 (10 pM) mediated T-cell activation (CD25+ T-cells, % of CD8+, 48 h) (TCE #1 [7]) | loss of inhibition of TCE activity (simple Incucyte assay) (TCE #1 [8]) | kon [3] | kon [4] | Binder | IC50, inhibition of TCE #1 (10 pM) mediated tumor cell killing (LDH release, OD492nm-620nm, 48 h) (TCE #1 [1]) | further results |
| --- | --- | --- | --- | --- | --- | --- | --- | --- | --- | --- | --- | --- |
| < 0.02 nM | < 5e-05 s⁻¹ | < 0.02 nM | < 5e-05 s⁻¹ | > 3.9 h | > 3.9 h | 0.0838 nM | 1 molar ratio binder:TCE |  |  | Binder #9 (designed binder) MRGSHHHHHHGSDLGKKLLQAARAGQLDEVRELLKAGADVNAKDHYGWTPLHLAASEGHLEIVEVLLKAGADVNAKDWIGWTPLHLAASFGHLEIVEVLLKAGADVNAKDVSGKTPLHIAARQGHLEIVEVLLKAGADVNAQDKSGKTPADLAARAGHQDIAEVLQLQKAA | 0.0518 nM | binding result [2]: binds; inhibition of TCE activity (complex Incucyte assay, functional sink chamber with beads coated with CD3-specific binding domain) (TCE #1 [8]): 12.3 molar ratio binder:TCE; inhibition of TCE activity (complex Incucyte assay, sink chamber with non-coated beads) (TCE #1 [8]): 1.37 molar ratio binder:TCE; inhibition of TCE activity (simple Incucyte assay) (TCE #1 [8]): 1 molar ratio binder:TCE and 4 fold molar excess of binder over TCE |
|  |  |  |  |  |  |  |  |  |  | Binder #10 (designed binder) MRGSHHHHHHGSDLGKKLLQAARAGQLDEVRELLKAGADVNAKDHYGWTPLHLAASEGHLEIVEVLLKAGADVNAKDWIGWTPLHLAASFGHLEIVEVLLKAGADVNAKDVSGKTPLHIAARQGHLEIVEVLLKAGADVNAQDKSGKTPADLAARAGHQDIAEVLQKAA |  | binding result [9]: binds; binding result [10]: binds; Kd (TCE #2 [11]): ≤ 0.001 nM |
| < 0.02 nM | < 5e-05 s⁻¹ | < 0.02 nM | < 5e-05 s⁻¹ | > 3.9 h | > 3.9 h | 0.0184 nM | 1 molar ratio binder:TCE |  |  | Binder #5 (designed binder) MRGSHHHHHHGSDLGKKLLQAARAGQLDEVRELLKAGADVNAKDHYGWTPLHIAAQIGHLEIVEVLLKAGADVNAKDWIGYTPLHLAASHGHLEIVEVLLKAGADVNAKDVSGKTPLHVAAAHGHLEIVEVLLKAGADVNAQDKSGKTPADLAARAGHQDIAEVLQKAA | 0.016 nM | Kd (TCE #1 [12]): ≤ 0.006 nM; blocking of T-cell mediated tumor cell growth inhibition (simple Incucyte assay) (TCE #1 [8]): 4 fold molar excess of binder over TCE; inhibition of TCE activity (simple Incucyte assay) (TCE #1 [8]): 4 fold molar excess of binder over TCE |
| < 0.02 nM | < 5e-05 s⁻¹ | < 0.02 nM | < 5e-05 s⁻¹ | > 3.9 h | > 3.9 h |  |  |  |  | Binder #7 (designed binder) MRGSHHHHHHGSDLGKKLLQAARAGQLDEVRELLKAGADVNAKDHYGWTPLHLAAAEGHLEIVEVLLKAGADVNAKDWIGYTPLHIAASHGHLEIVEVLLKAGADVNAKDSSGKTPLHIAAQHGHLEIVEVLLKAGADVNAQDKSGKTPADLAARAGHQDIAEVLQKAA |  |  |
| < 0.02 nM | < 5e-05 s⁻¹ | < 0.02 nM | < 5e-05 s⁻¹ | > 3.9 h | > 3.9 h |  |  |  |  | Binder #8 (designed binder) MRGSHHHHHHGSDLGKKLLQAARAGQLDEVRELLKAGADVNAKDHYGWTPLHIAAQRGHLEIVEVLLKAGADVNAKDWLGWTPLHVAASHGHLEIVEVLLKAGADVNAKDLSGRTPLHIAARQGHLEIVEVLLKAGADVNAQDKSGKTPADLAARAGHQDIAEVLQKAA |  |  |
| < 0.02 nM | < 5e-05 s⁻¹ | < 0.02 nM | < 5e-05 s⁻¹ | > 3.9 h | > 3.9 h |  |  |  |  | Binder #6 (designed binder) MRGSHHHHHHGSDLGKKLLQAARAGQLDEVRELLKAGADVNAKDQYGWTPLHLAAYSGHLEIVEVLLKAGADVNAKDWVGWTPLHLAASHGHLEIVEVLLKAGADVNAKDEAGRTPLHIAAKQGHLEIVEVLLKAGADVNAQDKSGKTPADLAARAGHQDIAEVLQKAA |  |  |
| 0.032 nM | 2e-05 s⁻¹ | 0.028 nM | 4e-05 s⁻¹ | 9.6 h | 4.8 h |  |  | 630000 M⁻¹ s⁻¹ | 1.43e+06 M⁻¹ s⁻¹ | Binder #2 (designed binder) MRGSHHHHHHGSDLGKKLLQAARAGQLDEVRELLKAGADVNAKDFKGLTPLHLAAAHGHLEIVEVLLKAGADVNAKDVYGWTPLHWAAASGHLEIVEVLLKAGADVNAKDWLGITPLHLAASHGHLEIVEVLLKAGADVNAQDKSGKTPADLAARAGHQDIAEVLQKAA |  |  |
| 0.019 nM | 1.2e-05 s⁻¹ | 0.011 nM | 1.9e-05 s⁻¹ | 16 h | 10.1 h | 0.0338 nM | 4 fold molar excess of binder over TCE | 630000 M⁻¹ s⁻¹ | 1.74e+06 M⁻¹ s⁻¹ | Binder #4 (designed binder) MRGSHHHHHHGSDLGKKLLQAARAGQLDEVRELLKAGADVNAKDFKGLTPLHLAAEHGHLEIVEVLLKAGADVNAKDVYGWTPLHWAAAKGHLEIVEVLLKAGADVNAKDWLGITPLHLAASHGHLEIVEVLLKAGADVNAQDKSGKTPADLAARAGHQDIAEVLQKAA | 0.0263 nM | Kd (TCE #2 [13]): ~0.02 nM |
| 0.034 nM | 2.7e-05 s⁻¹ | 0.04 nM | 6.2e-05 s⁻¹ | 7.1 h | 3.1 h |  |  | 790000 M⁻¹ s⁻¹ | 1.54e+06 M⁻¹ s⁻¹ | Binder #1 (designed binder, expressed in E. coli and purified by its His-tag) MRGSHHHHHHGSDLGKKLLQAARAGQLDEVRELLKAGADVNAKDFKGLTPLHLAAAHGHLEIVEVLLKAGADVNAKDVYGWTPLHIAAASGHLEIVEVLLKAGADVNAKDWLGITPLHLAASHGHLEIVEVLLKAGADVNAQDKSGKTPADLAARAGHQDIAEVLQKAA |  | Kd (TCE #2 [14]): ~0.04 nM |
| 0.029 nM | 1.9e-05 s⁻¹ | 0.016 nM | 2.8e-05 s⁻¹ | 10.1 h | 6.9 h |  |  | 650000 M⁻¹ s⁻¹ | 1.7e+06 M⁻¹ s⁻¹ | Binder #3 (designed binder) MRGSHHHHHHGSDLGKKLLQAARAGQLDEVRELLKAGADVNAKDFKGLTPLHLAAAHGHLEIVEVLLKAGADVNAKDVYGWTPLHWAAAKGHLEIVEVLLKAGADVNAKDWLGITPLHLAASHGHLEIVEVLLKAGADVNAQDKSGKTPADLAARAGHQDIAEVLQKAA |  |  |
